# Source: paper PMC10003650, “Characterization of a New Glucose-Tolerant GH1 β-Glycosidase from Aspergillus fumigatus with Transglycosylation Activity” (International Journal of Molecular Sciences, 2023)
# B1: AfBgl1.3 (Aspergillus fumigatus Af293) (protein)
# chain: MGSTTTSTLPPDFLWGFATASYQIEGAVDEDGRGPSIWDTFCKIPGKIAGGASGEVACDSYHRTHEDIALLKECGAKAYRFSISWSRVIPLGGRNDPVNEKGLQHYVKFVDDLLAAGITPLVTLFHWDLPDALDKRYGGLLNKEEFVADFANYARVMFNAFGSKVKYWITFNEPWCSSVLGYNVGQFAPGRTSDRTKSPVGDGSREPWIVGHNILVAHGAAVKIYREEFKPRDGGEIGITLNGDWAEPWDPENPADVEACDRKIEFAISWFADPIYHGKYPDSMVKQLGDRLPTWTPEDIALVHGSNDFYGMNHYCANYIKAKTGEPDPNDVAGNLEILLQNKNGEWIGPETQSPWLRPHPIGFRKLLKWLSDRYNQPKIYVTENGTSLKGESDLPVDQIVNDDFRVQYFREYIAAMADAYTLDGVNVRAYMAWSLMDNFEWAEGYETRFGVTFVDYANNQRRIPKKSAKVLREIFDQYIEKA
# Legend:
# purified protein = substrate: O=[N+]([O-])c1ccc(O[C@@H]2O[C@H](CO)[C@@H](O)[C@H](O)[C@H]2O)cc1; assay: purified protein; assay type: biochemical, Aspergillus fumigatus; conditions: 50 mM sodium phosphate pH 6.0, 40 °C, 30 min
# [1] = substrate: OCc1ccccc1O[C@@H]1O[C@H](CO)[C@@H](O)[C@H](O)[C@H]1O; assay: DNS method for released glucose, non-linear regression; assay type: biochemical, Aspergillus fumigatus; conditions: 50 mM sodium phosphate pH 6.0, 40 °C, 30 min
# Source text: DNS method for released glucose, non-linear regression on AfBgl1.3
protein,measurement,setting,value
B1,Km,purified protein,7.6 ± 0.8 mM
same,Vmax,purified protein,656 µmol/min/mg
same,kcat,purified protein,596 s⁻¹
same,kcat/Km,purified protein,78000 M⁻¹ s⁻¹
same,Km,[1],17.6 ± 1.9 mM
same,Vmax,[1],706 µmol/min/mg
same,kcat,[1],622 s⁻¹
same,kcat/Km,[1],35000 M⁻¹ s⁻¹
